# B1: Bone marrow stromal antigen 2 (Homo sapiens), Q10589 (parent)
# chain: MASTSYDYCRVPMEDGDKRCKLLLGIGILVLLIIVILGVPLIIFTIKANSEACRDGLRAVMECRNVTHLLQQELTEAQKGFQDVEAQAATCNHTVMALMASLDAEKAQGQKKVEELEGEITTLNHKLQDASAEVERLRRENQVLSVRIADKKYYPSSQDSSSAAAPQLLIVLLGLSALLQ
# partner: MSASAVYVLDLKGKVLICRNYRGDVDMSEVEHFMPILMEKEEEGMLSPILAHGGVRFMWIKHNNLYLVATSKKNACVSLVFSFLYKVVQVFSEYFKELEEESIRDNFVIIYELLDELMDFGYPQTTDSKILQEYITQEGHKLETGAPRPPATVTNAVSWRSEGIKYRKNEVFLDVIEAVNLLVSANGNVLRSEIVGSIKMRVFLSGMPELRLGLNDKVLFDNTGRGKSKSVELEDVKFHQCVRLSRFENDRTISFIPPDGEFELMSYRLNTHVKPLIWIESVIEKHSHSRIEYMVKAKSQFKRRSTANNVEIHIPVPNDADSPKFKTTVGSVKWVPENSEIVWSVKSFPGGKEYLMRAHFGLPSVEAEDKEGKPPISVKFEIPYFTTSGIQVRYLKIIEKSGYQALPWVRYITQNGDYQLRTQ
# B2: Protein Vpu (Human immunodeficiency virus type 1 group M subtype B (isolate SF162)), P19554 (parent)
# chain: MQPLQILAIVALVVAAIIAIVVWTIVYIEYRKILRQRKIDRLIDRITERAEDSGNESEGDQEELSALVERGHLAPWDVDDL
# B3: AP-1 complex subunit mu-1 (Mus musculus), P35585 (parent)
# chain: B1 partner
# Variants of: B1
# Conditions: with ap1m1_mouse Ap1m1, P35585
row,Variant,effect of a mutation on the interaction
1,V11A,disrupting interaction
2,Y8A,disrupting interaction
3,Y6A,disrupting interaction
4,Y6A;Y8A,disrupting interaction

# Variants of: B2
# Conditions: with fbw1a_human BTRC
row,Variant,effect of a mutation on the interaction
1,S53N;S57N,decreasing interaction

# Variants of: B3
# Conditions: with bst2_human BST2, Q10589
row,Variant,effect of a mutation on the interaction
1,D174A,disrupting interaction

# Variants of: B3
# Conditions: with tgon3_rat Ttgn1, P19814
# Chain of tgon3_rat Ttgn1, P19814 (P19814 whole entry): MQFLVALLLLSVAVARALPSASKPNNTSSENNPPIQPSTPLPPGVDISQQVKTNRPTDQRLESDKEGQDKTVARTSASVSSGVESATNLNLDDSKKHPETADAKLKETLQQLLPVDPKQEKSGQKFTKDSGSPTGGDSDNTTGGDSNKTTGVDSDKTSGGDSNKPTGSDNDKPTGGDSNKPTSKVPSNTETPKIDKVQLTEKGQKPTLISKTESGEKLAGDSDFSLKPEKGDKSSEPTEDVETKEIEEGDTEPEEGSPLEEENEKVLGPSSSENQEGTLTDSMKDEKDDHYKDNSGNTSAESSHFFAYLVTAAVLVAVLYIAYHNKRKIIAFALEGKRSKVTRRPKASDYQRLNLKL
row,Variant,effect of a mutation on the interaction
1,D174A,disrupting interaction

# From IntAct's records for PubMed 24843023
